According to US20200131230A1 (published 2020):
Like-named read-outs stand apart in the source and are kept apart here. Values belong to the binder of their own block, whether it stands above or below them. Positions of bridges follow the written chain, without caps; N, C: chain ends. Non-standard residues stand in square brackets, D forms with d. 2Nal = N[C@@H](Cc1ccc2ccccc2c1)C(=O)O; Phg = N[C@H](C(=O)O)c1ccccc1; Tle = CC(C)(C)[C@H](N)C(=O)O; Nle = CCCC[C@H](N)C(=O)O; AMF = not defined here

Experiments:
[1] = target: T1, Thrombospondin human platelet (Calbiochem, 605225) (human, UniProt P07996 19-1170); test: cell-based or functional assay
T1 sequence (P07996 19-1170 limits assumed): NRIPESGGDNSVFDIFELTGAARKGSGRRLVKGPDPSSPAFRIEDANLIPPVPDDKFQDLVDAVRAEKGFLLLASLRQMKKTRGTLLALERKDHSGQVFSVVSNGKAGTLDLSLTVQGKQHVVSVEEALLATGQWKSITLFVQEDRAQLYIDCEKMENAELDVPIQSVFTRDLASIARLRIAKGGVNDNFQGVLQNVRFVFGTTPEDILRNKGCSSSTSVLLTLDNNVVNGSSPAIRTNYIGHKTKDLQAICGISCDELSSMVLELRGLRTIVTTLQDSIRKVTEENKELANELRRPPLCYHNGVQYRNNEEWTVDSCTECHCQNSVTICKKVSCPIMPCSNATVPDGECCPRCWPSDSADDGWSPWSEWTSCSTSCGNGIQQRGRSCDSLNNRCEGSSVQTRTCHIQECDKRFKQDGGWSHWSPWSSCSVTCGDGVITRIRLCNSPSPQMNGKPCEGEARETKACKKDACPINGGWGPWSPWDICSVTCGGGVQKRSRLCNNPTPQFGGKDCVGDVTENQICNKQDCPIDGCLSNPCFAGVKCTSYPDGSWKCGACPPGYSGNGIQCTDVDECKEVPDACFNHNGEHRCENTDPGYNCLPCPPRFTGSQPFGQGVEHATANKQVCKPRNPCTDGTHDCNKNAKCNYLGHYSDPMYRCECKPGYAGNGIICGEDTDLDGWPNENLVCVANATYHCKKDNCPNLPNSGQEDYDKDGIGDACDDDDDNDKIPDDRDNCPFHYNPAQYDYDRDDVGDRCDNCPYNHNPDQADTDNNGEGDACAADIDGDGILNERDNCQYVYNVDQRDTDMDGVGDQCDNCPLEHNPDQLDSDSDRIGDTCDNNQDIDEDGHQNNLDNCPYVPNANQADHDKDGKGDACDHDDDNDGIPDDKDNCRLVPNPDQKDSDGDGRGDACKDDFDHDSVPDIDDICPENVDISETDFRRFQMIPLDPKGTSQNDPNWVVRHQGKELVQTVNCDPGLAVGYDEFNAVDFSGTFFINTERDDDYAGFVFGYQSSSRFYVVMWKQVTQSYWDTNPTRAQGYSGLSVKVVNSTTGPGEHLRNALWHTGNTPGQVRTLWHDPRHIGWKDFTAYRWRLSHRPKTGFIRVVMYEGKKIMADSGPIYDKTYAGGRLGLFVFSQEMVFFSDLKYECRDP

[2] = target: T1, Thrombospondin human platelet …; test: cell-based or functional assay; remark: listed apart in the source
Recombinant-hTSP1 = Recombinant-hTSP1 (human, UniProt P07996 19-1170, limits assumed); test: SPR (Biacore T200), single-cycle kinetics, recombinant hTSP1 immobilised on NTA chip
Chain of Recombinant-hTSP1 (P07996 19-1170 limits assumed): as above
Description: First, 500 μM NiCl₂ was injected over an NTA-Chip (produced by GE Healthcare, BR100532) at a flow rate of 5 μL/min. for 1 minute to thereby activate NTA groups. Then, an EDC/NHS mixture was injected at a flow rate of 10 μL/min. for 7 minutes to thereby activate the carboxyl groups of dextran. Recombinant-hTSP1 was injected at a flow rate of 10 μL/min. for 7 minutes to immobilize the TSP1 on the substrate surfaces with activated NTA and carboxyl groups. Ethanolamine was injected at a flow rate of 10 μL/min. for 7 minutes to thereby deactivate unreacted, activated carboxyl groups.
Since Biacore T200 is highly responsive to change in DMSO concentrations, DMSO solutions were sequentially injected at concentrations of 4%, 4.4%, 4.8%, 5.2%, 5.6%, and 6% to correct for DMSO effects.
The analysis was conducted using the evaluation software provided with Biacore T100 and T200. A DMSO correction curve obtained by solvent correction measurements was applied for the analysis. Kinetics fitting was done on the difference data obtained by subtracting the baseline data from sample measurement data.

B1: Compound 50 (peptide)
peptide: {CH2CO}-[2Nal][Tle]SGRNWVKWVC-NH2
modifications: thioether N-12
SMILES: CC(C)[C@@H]1NC(=O)[C@H](Cc2c[nH]c3ccccc23)NC(=O)[C@H](CCCCN)NC(=O)[C@H](C(C)C)NC(=O)[C@H](Cc2c[nH]c3ccccc23)NC(=O)[C@H](CC(N)=O)NC(=O)[C@H](CCCNC(=N)N)NC(=O)CNC(=O)[C@H](CO)NC(=O)[C@H](C(C)(C)C)NC(=O)[C@H](Cc2ccc3ccccc3c2)NC(=O)CSC[C@@H](C(N)=O)NC1=O
- Cell adhesion IC50 [1]: 11.6 nM

B3: Compound 3 (peptide)
peptide: {CH2CO}-FISGRNWVKWVC-NH2
modifications: thioether N-12
SMILES: CC[C@H](C)[C@@H]1NC(=O)[C@H](Cc2ccccc2)NC(=O)CSC[C@@H](C(N)=O)NC(=O)[C@H](C(C)C)NC(=O)[C@H](Cc2c[nH]c3ccccc23)NC(=O)[C@H](CCCCN)NC(=O)[C@H](C(C)C)NC(=O)[C@H](Cc2c[nH]c3ccccc23)NC(=O)[C@H](CC(N)=O)NC(=O)[C@H](CCCNC(=N)N)NC(=O)CNC(=O)[C@H](CO)NC1=O
- Cell adhesion IC50 [2]: 20.8 nM
- Kd (Recombinant-hTSP1): 0.25 nM

B4: Compound 9 (peptide)
peptide: {CH2CO}-WISGRNWVKWVC-NH2
modifications: thioether N-12
SMILES: CC[C@H](C)[C@@H]1NC(=O)[C@H](Cc2c[nH]c3ccccc23)NC(=O)CSC[C@@H](C(N)=O)NC(=O)[C@H](C(C)C)NC(=O)[C@H](Cc2c[nH]c3ccccc23)NC(=O)[C@H](CCCCN)NC(=O)[C@H](C(C)C)NC(=O)[C@H](Cc2c[nH]c3ccccc23)NC(=O)[C@H](CC(N)=O)NC(=O)[C@H](CCCNC(=N)N)NC(=O)CNC(=O)[C@H](CO)NC1=O
- Cell adhesion IC50 [2]: 27.3 nM
- Kd (Recombinant-hTSP1): 0.23 nM

B5: Compound 1 (peptide)
peptide: {CH2CO}-FISGRNWVVWVC-NH2
modifications: thioether N-12
SMILES: CC[C@H](C)[C@@H]1NC(=O)[C@H](Cc2ccccc2)NC(=O)CSC[C@@H](C(N)=O)NC(=O)[C@H](C(C)C)NC(=O)[C@H](Cc2c[nH]c3ccccc23)NC(=O)[C@H](C(C)C)NC(=O)[C@H](C(C)C)NC(=O)[C@H](Cc2c[nH]c3ccccc23)NC(=O)[C@H](CC(N)=O)NC(=O)[C@H](CCCNC(=N)N)NC(=O)CNC(=O)[C@H](CO)NC1=O
- Cell adhesion IC50 [2]: 34.9 nM
- Kd (Recombinant-hTSP1): 0.51 nM

B8: Compound 6 (peptide)
peptide: {CH2CO}-FRSGRNWVKWVC-NH2
modifications: thioether N-12
SMILES: CC(C)[C@@H]1NC(=O)[C@H](Cc2c[nH]c3ccccc23)NC(=O)[C@H](CCCCN)NC(=O)[C@H](C(C)C)NC(=O)[C@H](Cc2c[nH]c3ccccc23)NC(=O)[C@H](CC(N)=O)NC(=O)[C@H](CCCNC(=N)N)NC(=O)CNC(=O)[C@H](CO)NC(=O)[C@H](CCCNC(=N)N)NC(=O)[C@H](Cc2ccccc2)NC(=O)CSC[C@@H](C(N)=O)NC1=O
- Cell adhesion IC50 [2]: 27.3 nM
- Kd (Recombinant-hTSP1): 0.44 nM

B9: Compound 5 (peptide)
peptide: {CH2CO}-FISGRNWVRWRC-NH2
modifications: thioether N-12
SMILES: CC[C@H](C)[C@@H]1NC(=O)[C@H](Cc2ccccc2)NC(=O)CSC[C@@H](C(N)=O)NC(=O)[C@H](CCCNC(=N)N)NC(=O)[C@H](Cc2c[nH]c3ccccc23)NC(=O)[C@H](CCCNC(=N)N)NC(=O)[C@H](C(C)C)NC(=O)[C@H](Cc2c[nH]c3ccccc23)NC(=O)[C@H](CC(N)=O)NC(=O)[C@H](CCCNC(=N)N)NC(=O)CNC(=O)[C@H](CO)NC1=O
- Cell adhesion IC50 [2]: 33.4 nM
- Kd (Recombinant-hTSP1): 0.9 nM

B13: Compound 10 (peptide)
peptide: {CH2CO}-FISGKNWVRWVC-NH2
modifications: thioether N-12
SMILES: CC[C@H](C)[C@@H]1NC(=O)[C@H](Cc2ccccc2)NC(=O)CSC[C@@H](C(N)=O)NC(=O)[C@H](C(C)C)NC(=O)[C@H](Cc2c[nH]c3ccccc23)NC(=O)[C@H](CCCNC(=N)N)NC(=O)[C@H](C(C)C)NC(=O)[C@H](Cc2c[nH]c3ccccc23)NC(=O)[C@H](CC(N)=O)NC(=O)[C@H](CCCCN)NC(=O)CNC(=O)[C@H](CO)NC1=O
- Cell adhesion IC50 [2]: 10.9 nM
- Kd (Recombinant-hTSP1): 0.091 nM

Binder: {CH2CO}-FISGRNWV[3MH]WVC-NH2 (thioether N-12) [Compound 46]
- Cell adhesion IC50 [1]: 30.3 nM

Further lines, results first:

- Cell adhesion IC50 [1]: 10.4 nM
B2: Compound 48 (peptide)
peptide: {CH2CO}-[2Nal][Nle]SGRNWVKWVC-NH2
modifications: thioether N-12
SMILES: CCCC[C@@H]1NC(=O)[C@H](Cc2ccc3ccccc3c2)NC(=O)CSC[C@@H](C(N)=O)NC(=O)[C@H](C(C)C)NC(=O)[C@H](Cc2c[nH]c3ccccc23)NC(=O)[C@H](CCCCN)NC(=O)[C@H](C(C)C)NC(=O)[C@H](Cc2c[nH]c3ccccc23)NC(=O)[C@H](CC(N)=O)NC(=O)[C@H](CCCNC(=N)N)NC(=O)CNC(=O)[C@H](CO)NC1=O

- Cell adhesion IC50 [2]: 20.6 nM
- Kd (Recombinant-hTSP1): 0.12 nM
B6: Compound 7 (peptide)
peptide: {CH2CO}-FISGKNWVKWVC-NH2
modifications: thioether N-12
SMILES: CC[C@H](C)[C@@H]1NC(=O)[C@H](Cc2ccccc2)NC(=O)CSC[C@@H](C(N)=O)NC(=O)[C@H](C(C)C)NC(=O)[C@H](Cc2c[nH]c3ccccc23)NC(=O)[C@H](CCCCN)NC(=O)[C@H](C(C)C)NC(=O)[C@H](Cc2c[nH]c3ccccc23)NC(=O)[C@H](CC(N)=O)NC(=O)[C@H](CCCCN)NC(=O)CNC(=O)[C@H](CO)NC1=O

- Cell adhesion IC50 [2]: 25.5 nM
- Kd (Recombinant-hTSP1): 0.15 nM
B7: Compound 2 (peptide)
peptide: {CH2CO}-FRSGRNWVVWVC-NH2
modifications: thioether N-12
SMILES: CC(C)[C@@H]1NC(=O)[C@H](Cc2c[nH]c3ccccc23)NC(=O)[C@H](C(C)C)NC(=O)[C@H](C(C)C)NC(=O)[C@H](Cc2c[nH]c3ccccc23)NC(=O)[C@H](CC(N)=O)NC(=O)[C@H](CCCNC(=N)N)NC(=O)CNC(=O)[C@H](CO)NC(=O)[C@H](CCCNC(=N)N)NC(=O)[C@H](Cc2ccccc2)NC(=O)CSC[C@@H](C(N)=O)NC1=O

- Cell adhesion IC50 [2]: 18.7 nM
- Kd (Recombinant-hTSP1): 0.096 nM
B10: Compound 13 (peptide)
peptide: {CH2CO}-FISGRTWVKWVC-NH2
modifications: thioether N-12
SMILES: CC[C@H](C)[C@@H]1NC(=O)[C@H](Cc2ccccc2)NC(=O)CSC[C@@H](C(N)=O)NC(=O)[C@H](C(C)C)NC(=O)[C@H](Cc2c[nH]c3ccccc23)NC(=O)[C@H](CCCCN)NC(=O)[C@H](C(C)C)NC(=O)[C@H](Cc2c[nH]c3ccccc23)NC(=O)[C@H]([C@@H](C)O)NC(=O)[C@H](CCCNC(=N)N)NC(=O)CNC(=O)[C@H](CO)NC1=O

- Cell adhesion IC50 [2]: 26.3 nM
- Kd (Recombinant-hTSP1): 0.14 nM
B11: Compound 11 (peptide)
peptide: {CH2CO}-WISGRNWVRWVC-NH2
modifications: thioether N-12
SMILES: CC[C@H](C)[C@@H]1NC(=O)[C@H](Cc2c[nH]c3ccccc23)NC(=O)CSC[C@@H](C(N)=O)NC(=O)[C@H](C(C)C)NC(=O)[C@H](Cc2c[nH]c3ccccc23)NC(=O)[C@H](CCCNC(=N)N)NC(=O)[C@H](C(C)C)NC(=O)[C@H](Cc2c[nH]c3ccccc23)NC(=O)[C@H](CC(N)=O)NC(=O)[C@H](CCCNC(=N)N)NC(=O)CNC(=O)[C@H](CO)NC1=O

- Cell adhesion IC50 [2]: 11.2 nM
- Kd (Recombinant-hTSP1): 0.26 nM
B12: Compound 4 (peptide)
peptide: {CH2CO}-FISGRNWVRWVC-NH2
modifications: thioether N-12
SMILES: CC[C@H](C)[C@@H]1NC(=O)[C@H](Cc2ccccc2)NC(=O)CSC[C@@H](C(N)=O)NC(=O)[C@H](C(C)C)NC(=O)[C@H](Cc2c[nH]c3ccccc23)NC(=O)[C@H](CCCNC(=N)N)NC(=O)[C@H](C(C)C)NC(=O)[C@H](Cc2c[nH]c3ccccc23)NC(=O)[C@H](CC(N)=O)NC(=O)[C@H](CCCNC(=N)N)NC(=O)CNC(=O)[C@H](CO)NC1=O

- Cell adhesion IC50 [2]: 22.2 nM
- Kd (Recombinant-hTSP1): 0.38 nM
B14: Compound 12 (peptide)
peptide: {CH2CO}-FITGRNWVKWVC-NH2
modifications: thioether N-12
SMILES: CC[C@H](C)[C@@H]1NC(=O)[C@H](Cc2ccccc2)NC(=O)CSC[C@@H](C(N)=O)NC(=O)[C@H](C(C)C)NC(=O)[C@H](Cc2c[nH]c3ccccc23)NC(=O)[C@H](CCCCN)NC(=O)[C@H](C(C)C)NC(=O)[C@H](Cc2c[nH]c3ccccc23)NC(=O)[C@H](CC(N)=O)NC(=O)[C@H](CCCNC(=N)N)NC(=O)CNC(=O)[C@H]([C@@H](C)O)NC1=O

- Cell adhesion IC50 [1]: 11.5 nM
B15: Compound 49 (peptide)
peptide: {CH2CO}-[2Nal][Phg]SGRNWVKWVC-NH2
modifications: thioether N-12
SMILES: CC(C)[C@@H]1NC(=O)[C@H](Cc2c[nH]c3ccccc23)NC(=O)[C@H](CCCCN)NC(=O)[C@H](C(C)C)NC(=O)[C@H](Cc2c[nH]c3ccccc23)NC(=O)[C@H](CC(N)=O)NC(=O)[C@H](CCCNC(=N)N)NC(=O)CNC(=O)[C@H](CO)NC(=O)[C@H](c2ccccc2)NC(=O)[C@H](Cc2ccc3ccccc3c2)NC(=O)CSC[C@@H](C(N)=O)NC1=O

- Cell adhesion IC50 [1]: 16.7 nM
Binder: {CH2CO}-FISGRNWV[AMF]WVC-NH2 (thioether N-12; reading uncertain) [Compound 47]
